Experimental data as given in publication doi:10.1101/2025.01.10.632437 (bioRxiv, 2025).
Where two headings read alike, the source gives them in different places.

Columns and labels:
Experiment in all cases: cryo-EM structure
[1] = target: the molecule itself
[2] = target: the molecule itself; remark: listed apart in the source
[3] = target: the molecule itself; remark: listed apart in the source

B1: murine TMEM16F with C-terminal vYFP and SBP-tag (natural protein, mouse)
chain: QMMTRKVLLNMELEEDDDEDGDIVLENFDQTIVCPTFGSLENQQDFRTPEFEEFNGKPDSLFFTDGQRRIDFILVYEDESKKENNKKGTNEKQKRKRQAYESNLICHGLQLEATRSVSDDKLVFVKVHAPWEVLCTYAEIMHIKLPLKPNDLKTRSPFGNLNWFTKVLRVNESVIKPEQEFFTAPFEKSRMNDFYILDRDSFFNPATRSRIVYFILSRVKYQVMNNVNKFGINRLVSSGIYKAAFPLHDCRFNYESEDISCPSERYLLYREWAHPRSIYKKQPLDLIRKYYGEKIGIYFAWLGYYTQMLLLAAVVGVACFLYGYLDQDNCTWSKEVCDPDIGGQILMCPQCDRLCPFWRLNITCESSKKLCIFDSFGTLIFAVFMGVWVTLFLEFWKRRQAELEYEWDTVELQQEEQARPEYEAQCNHVVINEITQEEERIPFTTCGKCIRVTLCASAVFFWILLIIASVIGIIVYRLSVFIVFSTTLPKNPNGTDPIQKYLTPQMATSITASIISFIIIMILNTIYEKVAIMITNFELPRTQTDYENSLTMKMFLFQFVNYYSSCFYIAFFKGKFVGYPGDPVYLLGKYRSEECDPGGCLLELTTQLTIIMGGKAIWNNIQEVLLPWVMNLIGRYKRVSGSEKITPRWEQDYHLQPMGKLGLFYEYLEMIIQFGFVTLFVASFPLAPLLALVNNILEIRVDAWKLTTQFRRMVPEKAQDIGAWQPIMQGIAILAVVTNAMIIAFTSDMIPRLVYYWSFSIPPYGDHTYYTMDGYINNTLSVFNITDFKNTDKENPYIGLGNYTLCRYRDFRNPPGHPQEYKHNIYYWHVIAAKLAFIIVMEHIIYSVKFFISYAIPDVSKITKSKIKREKYLTQKLLHESHLKDLTKNMGIIAERIGGTVDNSVRPKLE
stoichiometry N [1]: 2

B2: bovine proton-activated Cl- channel TMEM206/PACC1 without vYFP (conventional purification) (natural protein)
chain: not shown
binding result [2]: binds

B3: bovine TMEM206/PACC1 with C-terminally fused venus-YFP followed by a streptavidin binding peptide tag (natural protein)
chain: not shown
binding result [3]: binds
